Data set [1] deals with T1, human DRAXIN 21 amino acid Netrin binding fragment, AVEXIS prey or bait protein (human).
T1 construct: Tested in both bait and prey orientations; also called human 21 amino acid DRAXIN fragment; derived 21 amino acid peptide; not shown: AVEXIS tag (rat Cd4d3+4 and prey or bait module)
T1 peptide: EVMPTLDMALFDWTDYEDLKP
The experiment in a line: AVEXIS, prey on bait DRAXIN 21aa; white = No binding. From the text:
(§1) The Matn4-bait served as an internal prey-protein control and was used for normalization of the A486 nm values; conditioned medium (CM) serves as negative control; n=3.

For data set [2], the target named is T2, human Netrin-G1, AVEXIS protein (human, UniProt Q9Y2I2 29-510).
T2 construct: not shown: AVEXIS tag (bait or prey)
T2 sequence (looked up): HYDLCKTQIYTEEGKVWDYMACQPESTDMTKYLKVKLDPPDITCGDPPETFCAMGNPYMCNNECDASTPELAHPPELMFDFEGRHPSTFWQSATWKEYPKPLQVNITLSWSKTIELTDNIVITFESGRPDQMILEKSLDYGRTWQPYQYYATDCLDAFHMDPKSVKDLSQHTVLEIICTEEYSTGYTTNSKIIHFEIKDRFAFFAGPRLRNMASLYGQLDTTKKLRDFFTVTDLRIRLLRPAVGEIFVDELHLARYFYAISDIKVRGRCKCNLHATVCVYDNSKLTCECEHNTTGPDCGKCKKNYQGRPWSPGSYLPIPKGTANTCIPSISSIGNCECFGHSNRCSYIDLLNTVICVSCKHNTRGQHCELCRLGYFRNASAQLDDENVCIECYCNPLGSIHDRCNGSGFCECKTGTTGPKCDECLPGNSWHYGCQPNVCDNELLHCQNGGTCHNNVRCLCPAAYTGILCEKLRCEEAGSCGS
The experiment in a line: AVEXIS, prey on bait NTNG1; white = No binding.
Text: as §1

Data set [3] addresses T3, human Netrin-3, AVEXIS protein (human, UniProt O00634 28-580).
T3 construct: not shown: AVEXIS tag (bait or prey)
As to the kind of experiment: AVEXIS, prey on bait NTN3; white = No binding.
Text: as §1

Data set [4] deals with the molecule itself. The experiment in a line: AVEXIS, prey NTN4 on bait NTN4.
Text: as §1

Data set [5] concerns the target T4, human Netrin1, recombinant AVEXIS protein (biotinylated when immobilised) (human, UniProt O95631 25-604).
T4 construct: also called NTN1
As to the kind of experiment: AVEXIS, prey on bait NTN1; white = No binding.
Text: as §1

In data set [6] the target is T4, human Netrin1, recombinant AVEXIS …. As to the kind of experiment: AVEXIS, prey NTN1 on bait NTN4.
Text: as §1

The target in data set [7] is T5, biotinylated recombinant human UNC5B (human, UniProt Q8IZJ1 27-377).
T5 construct: Made in HEK293-6E and immobilised on an SA chip
As to the kind of experiment: AVEXIS, prey on bait UNC5B; white = No binding.
Text: as §1

Data set [8] concerns the molecule itself. The experiment in a line: AVEXIS, prey on bait NTN4; white = No binding.
Text: as §1

The target in data set [9] is T6, human DRAXIN, AVEXIS prey or bait protein (human, UniProt Q8NBI3 26-349).
T6 sequence: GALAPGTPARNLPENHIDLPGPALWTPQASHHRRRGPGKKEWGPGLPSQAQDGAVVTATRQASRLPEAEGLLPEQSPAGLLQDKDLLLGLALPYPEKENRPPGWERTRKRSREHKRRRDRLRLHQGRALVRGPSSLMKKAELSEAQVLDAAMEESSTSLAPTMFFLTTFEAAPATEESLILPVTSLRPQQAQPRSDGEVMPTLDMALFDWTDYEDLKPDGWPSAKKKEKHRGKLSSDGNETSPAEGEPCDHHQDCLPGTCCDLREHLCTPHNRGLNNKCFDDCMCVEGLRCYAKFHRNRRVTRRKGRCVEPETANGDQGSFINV
The experiment in a line: AVEXIS, prey on bait DRAXIN; white = No binding.
Text: as §1

Data set [10] concerns the target T7, human Netrin-G2, AVEXIS protein (human, UniProt Q96CW9 18-507).
T7 construct: not shown: AVEXIS tag (bait or prey)
T7 sequence (looked up): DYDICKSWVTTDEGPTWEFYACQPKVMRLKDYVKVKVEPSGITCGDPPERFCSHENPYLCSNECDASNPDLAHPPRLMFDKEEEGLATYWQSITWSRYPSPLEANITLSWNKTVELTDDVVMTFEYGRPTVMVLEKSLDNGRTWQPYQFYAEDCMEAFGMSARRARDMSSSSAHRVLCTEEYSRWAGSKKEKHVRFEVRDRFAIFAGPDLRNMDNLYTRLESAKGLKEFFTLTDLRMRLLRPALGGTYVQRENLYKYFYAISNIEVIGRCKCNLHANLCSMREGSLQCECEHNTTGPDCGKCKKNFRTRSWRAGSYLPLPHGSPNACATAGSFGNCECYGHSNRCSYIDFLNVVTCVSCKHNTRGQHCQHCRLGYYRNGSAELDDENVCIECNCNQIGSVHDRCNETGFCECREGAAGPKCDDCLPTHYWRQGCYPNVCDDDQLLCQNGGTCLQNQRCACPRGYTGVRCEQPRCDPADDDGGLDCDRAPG
The experiment in a line: AVEXIS, prey on bait NTNG2; white = No binding.
Text: as §1

Data set [11] has as its target T8, Matn4 ECD, mono-biotinylated bait protein (positive control).
T8 construct: extracellular domain; also called Matn4-bait
The experiment in a line: AVEXIS, prey on bait Matn4 (+), positive control for the prey; dark = Binding.
Text: as §1

T3 sequence (O00634 28-580): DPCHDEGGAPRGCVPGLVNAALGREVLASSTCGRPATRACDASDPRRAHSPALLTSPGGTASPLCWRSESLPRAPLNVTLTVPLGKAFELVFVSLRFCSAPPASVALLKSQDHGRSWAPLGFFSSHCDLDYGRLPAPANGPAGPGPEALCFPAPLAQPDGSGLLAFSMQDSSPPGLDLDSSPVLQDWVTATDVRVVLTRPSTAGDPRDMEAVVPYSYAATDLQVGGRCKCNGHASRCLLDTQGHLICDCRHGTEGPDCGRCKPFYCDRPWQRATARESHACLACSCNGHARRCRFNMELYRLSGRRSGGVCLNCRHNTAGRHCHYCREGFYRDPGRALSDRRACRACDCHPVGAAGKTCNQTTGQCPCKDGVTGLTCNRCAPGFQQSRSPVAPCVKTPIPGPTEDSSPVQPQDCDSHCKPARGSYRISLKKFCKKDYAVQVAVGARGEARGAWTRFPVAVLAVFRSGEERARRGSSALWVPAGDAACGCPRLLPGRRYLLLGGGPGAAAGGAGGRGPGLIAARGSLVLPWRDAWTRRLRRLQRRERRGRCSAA

B1: human Netrin-4, AVEXIS protein (ligand, UniProt Q9HB63 19-628, looked up)
chain: GLSGVAGVSSRCEKACNPRMGNLALGRKLWADTTCGQNATELYCFYSENTDLTCRQPKCDKCNAAYPHLAHLPSAMADSSFRFPRTWWQSAEDVHREKIQLDLEAEFYFTHLIVMFKSPRPAAMVLDRSQDFGKTWKPYKYFATNCSATFGLEDDVVKKGAICTSKYSSPFPCTGGEVIFKALSPPYDTENPYSAKVQEQLKITNLRVQLLKRQSCPCQRNDLNEEPQHFTHYAIYDFIVKGSCFCNGHADQCIPVHGFRPVKAPGTFHMVHGKCMCKHNTAGSHCQHCAPLYNDRPWEAADGKTGAPNECRTCKCNGHADTCHFDVNVWEASGNRSGGVCDDCQHNTEGQYCQRCKPGFYRDLRRPFSAPDACKPCSCHPVGSAVLPANSVTFCDPSNGDCPCKPGVAGRRCDRCMVGYWGFGDYGCRPCDCAGSCDPITGDCISSHTDIDWYHEVPDFRPVHNKSEPAWEWEDAQGFSALLHSGKCECKEQTLGNAKAFCGMKYSYVLKIKILSAHDKGTHVEVNVKIKKVLKSTKLKIFRGKRTLYPESWTDRGCTCPILNPGLEYLVAGHEDIRTGKLIVNMKSFVQHWKPSLGRKVMDILKRECK
notes: not shown: AVEXIS tag (bait or prey)
Consider B1, for which the A486nm in data set [1] amounted to 0.067; in [2], 0.065; in data set [3] it was 0.065; in data set [5], 0.067; in [7] it was 0.063; in data set [8] it was 0.068. Also, the figures for the A486nm in data set [9], in [10] and in data set [11] were 0.063, 0.063 and 0.235, respectively. For the same molecule, the binding result in [4] and in data set [6] was “no binding” throughout.

For the origin of these results see patent US20160347802A1 (MAX PLANCK GESELLSCHAFT ZUR FOERDERUNG DER WISSENSCHAFTEN E …, published 2016).
